# Ends that are not written are not given here.
# T1: wild‐type SERF2 (human, UniProt P84101-1 1-59)
# T1 sequence: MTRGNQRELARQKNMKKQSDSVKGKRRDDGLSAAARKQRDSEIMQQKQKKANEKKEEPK
# B1: Asyn Med peptide (GKNEEGAPQEGI) of alpha‐synuclein, carboxyfluorescein-labeled (peptide)
# peptide: GKNEEGAPQEGI
# modifications: also: 5(6)-carboxyfluorescein label, site not given here
# B2: Asyn top peptide (YEMPSEEGYQDY) of alpha‐synuclein, carboxyfluorescein-labeled (peptide)
# peptide: YEMPSEEGYQDY
# modifications: also: 5(6)-carboxyfluorescein label, site not given here
# B3: Asyn worst peptide (MDVFMKGLSKAK) of alpha‐synuclein, carboxyfluorescein-labeled (peptide)
# peptide: MDVFMKGLSKAK
# modifications: also: 5(6)-carboxyfluorescein label, site not given here
# Columns and labels:
# Assay in all cases: MST
# [1] = target: amyloid beta peptide (strongest wild‐type SERF2 binding peptide from amyloid beta), carboxyfluorescein-labeled (human)
# [2] = target: T1, wild‐type SERF2
# [3] = target: B1
# [4] = target: B2
# [5] = target: B3
Binder,Kd [1] [µM],binding result [2],further results
wild‐type SERF2 (natural protein) MTRGNQRELARQKNMKKQSDSVKGKRRDDGLSAAARKQRDSEIMQQKQKKANEKKEEPK,9.6,,
B1,,binds,
B2,,,Kd [2]: 3 µM
B3,,binds,
SERF2 KR mutant (natural protein) MTRGNQRELARQKNMRRQSDSVRGKRRDDGLSAAARKQRDSEIMQQKQKKANEKKEEPK,6.6,,binding result [3]: binds; Kd [4]: 2.6 µM; binding result [5]: binds
